Laboratory results published in publication PMC4319758.

Assays:
[1] = target: Sec61 channel, wild type (Sec61p, Sbh1p, Sss1p), in reconstituted proteoliposomes (S. cerevisiae | S. cerevisiae (endogenous in the yeast membranes)) (UniProt P32915)
[2] = target: Sec61 channel with Sec61p S353C, in reconstituted proteoliposomes (S. cerevisiae | S. cerevisiae (endogenous in the yeast membranes)) (UniProt P32915)
[3] = target: Sec61 channel with Sec61p S179P, in reconstituted proteoliposomes (S. cerevisiae | S. cerevisiae (endogenous in the yeast membranes)) (UniProt P32915)
[4] = target: Sec61 channel with Sec61p S179P/S353C, in reconstituted proteoliposomes (S. cerevisiae | S. cerevisiae (endogenous in the yeast membranes)) (UniProt P32915)
[5] = target: Sec61 channel with Sec61p of sec61-302 (D168G, S179P, F263L, S353C), in reconstituted proteoliposomes (S. cerevisiae | S. cerevisiae (endogenous in the yeast membranes)) (UniProt P32915)
[6] = target: Sec61 channel, wild type (Sec61p, Sbh1p, Sss1p), in reconstituted proteoliposomes (S. cerevisiae | S. cerevisiae (endogenous in the yeast membranes)) (UniProt P32915); test: flotation of proteoliposomes in a sucrose gradient; 20 eq of reconstituted proteoliposomes with 2 pmol 19S RP in 30 µl binding buffer (20 mM Hepes-KOH pH 7.2, 250 mM sucrose, 120 mM KOAc, 5 mM Mg(OAc)2, 5 mM ATP, 1 mM DTT), 20 min on ice then 10 min at RT; flotation 55,000 rpm, 4°C, 1 hr; 9 fractions, 19S RP detected by anti-FLAG blot
[7] = target: Sec61 channel with Sec61p of sec61-302 (D168G, S179P, F263L, S353C), in reconstituted proteoliposomes (S. cerevisiae | S. cerevisiae (endogenous in the yeast membranes)) (UniProt P32915); test: as above

Q: What does the source list for “proteasome 19S regulatory particle (RP), FLAG-tagged on Rpt1 (from UniProt P33299 1-467) (complex)”?
A: t1/2 of Δgpαf export and degradation from microsomes in the cell-free ERAD assay with 1 mg/ml cytosol (limiting 19S RP) [1]: 20 min; t1/2 of Δgpαf export and degradation from microsomes in the cell-free ERAD assay with 1 mg/ml cytosol (limiting 19S RP) [2]: 45 min; t1/2 of Δgpαf export and degradation from microsomes in the cell-free ERAD assay with 1 mg/ml cytosol (limiting 19S RP); wildtype kinetics [3]: 20 min; t1/2 of Δgpαf export and degradation from microsomes in the cell-free ERAD assay with 1 mg/ml cytosol (limiting 19S RP) [4]: 45 min; t1/2 of Δgpαf export and degradation from microsomes in the cell-free ERAD assay with 1 mg/ml cytosol (limiting 19S RP) [5]: 45 min; percent of 19S RP bound [6]: 40%; percent of 19S RP bound [7]: 20%
